Assay results taken from patent US12042530B2, “Target peptides for immunotherapy and diagnostics” (University of Virginia Patent Foundation, priority 2012, dated 2024).
Non-standard residues stand in square brackets, D forms with d. No end group written: not given here. pS = N[C@@H](COP(=O)(O)O)C(=O)O

What was measured:
HLA-B*0702 = molecular target: T1, HLA-B*0702 (Homo sapiens, UniProt P01889); assay: Phosphopeptides presented in association with class I molecules (HLA-B*0702) on cancer cells: melanoma and/or leukemia; set-up: key: Melanoma (M); Leukemia (L); L/M: Melanoma (M) and/or Leukemia (L); details: cancer type on which the HLA-B*0702 phosphopeptide is presented
T1 construct: endogenous in cells; host or cells: melanoma and/or leukemia cells

[1] = molecular target: T2, HLA-B*0702 (HLA-B7) peptide complexes (Homo sapiens, UniProt P01889); assay: HLA-B*0702 phosphopeptides associated with leukemia samples (isolation of HLA-associated peptides); details: for Copies/cell class, ALL1: acute lymphoblastic leukemia sample ALL1; for Copies/cell class, HCL1: hairy cell leukemia sample HCL1; for Copies/cell class, T Cell: healthy T cells
T2 construct: endogenous in cells; host or cells: JY B-lymphoblastoid line; primary ALL, CLL, HCL, AML samples; bone marrow; healthy B and T cells
In short: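 Class I HLA-A2 and HLA-B7 complexes were immunoaffinity-purified (BB7.2 or MEL antibodies on protein A) from CHAPS lysates of ~1.2-14×10^9 cells, using phosphatase and protease inhibitors. Sources were Ficoll-purified (>98%) CLL, MCL, ALL and AML cells, healthy splenic T/B cells and JY cells. Peptides were eluted with 10% acetic acid.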

[2] = molecular target: T3, HLA-A*0201 (HLA-A2) peptide complexes (Homo sapiens, UniProt P04439, D140Y/D185E/D98H/E176V/E277Q/G131W/G231S/I119V/I121R/I166T/I218V/L300P/L318F/N151K/N90K/P208A/P217A/Q86G/Q94H/R138H/R169H/T345S); assay: HLA-A*0201 phosphopeptides associated with leukemia samples (isolation of HLA-associated peptides); details: for Copies/cell class, JY: EBV transformed B lymphoblastoid cell line JY; for Copies/cell class, AML1: acute myeloid leukemia sample AML1; for Copies/cell class, CLL1: chronic lymphocytic leukemia sample CLL1; for Copies/cell class, B Cell: healthy B cells; for Copies/cell class, T Cell: healthy T cells; for Copies/cell class, MCL: mantle cell lymphoma sample
T3 construct: endogenous in cells; host or cells: JY B-lymphoblastoid line; primary CLL, MCL, AML, ALL samples; healthy splenic T and B cells
Description: To identify naturally processed tumor-associated phosphopeptides, HLA-A*0201 (HLA-A2) and HLA-B*0702 (HLA-B7) peptide complexes from four (4) chronic lymphocytic leukemia (CLL) tumor samples, a mantle cell lymphoma sample (MCL), one acute lymphoblastic leukemia (ALL), and an acute myeloid leukemia (AML) sample, in addition to healthy splenic T and B-cells and the cultured lymphoblastoid cell line JY were isolated. These efforts yielded 10 HLA-A2-restricted and 86 HLA-B7-restricted phosphopeptide antigens (see Tables 6 and 7).
All cell lines were grown at 37° C. with 5% CO2 in growth medium consisting of RPMI 1640 supplemented with 10% FCS and two mM L-glutamine. Blood or leukapheresis samples were taken from patients with high-burden leukemia in heparin. Tumor cells were recovered by layering the blood over density gradient (Ficoll) and collecting the tumor layer following centrifugation. The tumor was washed in tris-buffered saline (TBS). The purity of the tumor was assessed using flow cytometry and was >98% pure in all cases. For healthy T and B-cell populations, a normal spleen sample processed and tonsil sample was collected and lymphocytes released through mechanical disruption. Mononuclear cells were isolated using a density gradient and 10^9 T cells isolated using anti-CD19 or anti-CD3 microbeads (Miltenyi Biotec Inc., Auburn, California, United States of America) with purity >98% were obtained. Bone marrow sample was obtained from an elective orthopedic procedure and red cell-depleted using hypotonic lysis. This sample was not processed further.
Class I MHC molecules were immunoaffinity purified from the JY cell line or from primary tumor samples, and their associated peptides were extracted as previously described in Zarling et al., 2006. Approximately 1.2-14×10^9 cells were lysed in a solution containing 20 mM Tris-HCl (pH 8.0), 150 mM NaCl, 1% CHAPS, one mM PMSF, five μg/mL aprotinin, 10 μg/mL leupeptin, 10 μg/mL pepstatin A, 1 μg/ml calyculin A, and phosphatase inhibitor (cocktails I and II; Sigma-Aldrich). The mixture was subjected to centrifugation and the resulting supernatant was passed over protein A sepharose pre-loaded with the HLA-A2-specific antibody BB7.2 or HLA-B7-specific antibody MEL Peptides were eluted from the purified class I MHC molecules with 10% acetic acid.

L/M (HLA-B*0702) | Copies/cell class, AML1 [1] | Copies/cell class, CLL2 [2] | Copies/cell class, CLL3 [2] | Copies/cell class, CLL4 [2] | Copies/cell class, JY [2] | Copies/cell class, AML1 [2] | Copies/cell class, CLL1 [2] | Copies/cell class, B Cell [2] | Copies/cell class, T Cell [2] | Copies/cell class, MCL [2] | Substance | further results
L | 1 (1 indicates <1 copy/cell) |  |  |  |  |  |  |  |  |  | 370 (SPGLARKR[pS]L; listed as Homo sapiens) [compound 370] | 
L | 1 (1 indicates <1 copy/cell) |  |  |  |  |  |  |  |  |  | 371 (SPK[pS]PGLKA; listed as Homo sapiens) [compound 371] | Copies/cell class, CLL2 [1]: 3 (3 indicates 6-25 copies per cell); Copies/cell class, CLL4 [1]: 3 (3 indicates 6-25 copies per cell); Copies/cell class, JY [1]: 4 (4 indicates >25 copies per cell); Copies/cell class, ALL1 [1]: 1 (1 indicates <1 copy/cell); Copies/cell class, HCL1 [1]: 2 (2 indicates 1-5 copies/cell); Copies/cell class, T Cell [1]: 1 (1 indicates <1 copy/cell); Copies/cell class, BM ([1]; healthy bone marrow): 1 (1 indicates <1 copy/cell)
L/M | 4 (4 indicates >25 copies per cell) |  |  |  |  |  |  |  |  |  | 374 (SPRR[pS]RSISL; listed as Homo sapiens) [compound 374] | 
L | 2 (2 indicates 1-5 copies/cell) |  |  |  |  |  |  |  |  |  | 377 (SPR[pS]PGKPM; listed as Homo sapiens) [compound 377] | Copies/cell class, CLL2 [1]: 1 (1 indicates <1 copy/cell); Copies/cell class, CLL4 [1]: 2 (2 indicates 1-5 copies/cell); Copies/cell class, JY [1]: 4 (4 indicates >25 copies per cell); Copies/cell class, ALL1 [1]: 1 (1 indicates <1 copy/cell); Copies/cell class, HCL1 [1]: 2 (2 indicates 1-5 copies/cell)
L | 2 (2 indicates 1-5 copies/cell) |  |  |  |  |  |  |  |  |  | 379 (SPR[pS]PSTTYL; listed as Homo sapiens) [compound 379] | 
L | 2 (2 indicates 1-5 copies/cell) |  |  |  |  |  |  |  |  |  | 382 (SPS[pS]PSVRRQL; listed as Homo sapiens) [compound 382] | Copies/cell class, B Cell ([1]; healthy B cells): 2 (2 indicates 1-5 copies/cell); Copies/cell class, T Cell [1]: 2 (2 indicates 1-5 copies/cell)
L | 1 (1 indicates <1 copy/cell) |  |  |  |  |  |  |  |  |  | 383 (SPSTSRSGG[pS]SRL; listed as Homo sapiens) [compound 383] | 
L |  |  |  |  |  |  |  |  |  |  | 385 (TPAQPQRR[pS]L; listed as Homo sapiens) [compound 385] | Copies/cell class, ALL1 [1]: 1 (1 indicates <1 copy/cell)
L |  |  |  |  |  |  |  |  |  |  | 386 (TPI[pS]PGRASGM; listed as Homo sapiens) [compound 386] | Copies/cell class, ALL1 [1]: 1 (1 indicates <1 copy/cell)
L | 3 (3 indicates 6-25 copies per cell) |  |  |  |  |  |  |  |  |  | 387 (TPR[pS]PPLGL; listed as Homo sapiens) [compound 387] | Copies/cell class, CLL2 [1]: 3 (3 indicates 6-25 copies per cell); Copies/cell class, CLL4 [1]: 2 (2 indicates 1-5 copies/cell); Copies/cell class, JY [1]: 4 (4 indicates >25 copies per cell); Copies/cell class, HCL1 [1]: 3 (3 indicates 6-25 copies per cell)
L | 3 (3 indicates 6-25 copies per cell) |  |  |  |  |  |  |  |  |  | 388 (TPR[pS]PPLGLI; listed as Homo sapiens) [compound 388] | Copies/cell class, CLL2 [1]: 2 (2 indicates 1-5 copies/cell); Copies/cell class, CLL4 [1]: 2 (2 indicates 1-5 copies/cell); Copies/cell class, JY [1]: 4 (4 indicates >25 copies per cell); Copies/cell class, HCL1 [1]: 2 (2 indicates 1-5 copies/cell)
L | 1 (1 indicates <1 copy/cell) |  |  |  |  |  |  |  |  |  | 389 (VPR[pS]PKHAHSSSL; listed as Homo sapiens) [compound 389] | 

The remaining lines, values behind:

Substance | L/M (HLA-B*0702) | Copies/cell class, AML1 [1] | Copies/cell class, CLL2 [2] | Copies/cell class, CLL3 [2] | Copies/cell class, CLL4 [2] | Copies/cell class, JY [2] | Copies/cell class, AML1 [2] | Copies/cell class, CLL1 [2] | Copies/cell class, B Cell [2] | Copies/cell class, T Cell [2] | Copies/cell class, MCL [2] | further results
391 (YQR[pS]FDEVEGV; listed as Homo sapiens) [compound 391] | L | 1 (1 indicates <1 copy/cell) |  |  |  |  |  |  |  |  |  | 
392 (YQR[pS]FDEVEGVF; listed as Homo sapiens) [compound 392] | L | 2 (2 indicates 1-5 copies/cell) |  |  |  |  |  |  |  |  |  | 
436 (KAKSPAPGL; SITE (1)..(9): One or more of the listed amino acids can be phosphorylated as set forth in the Tables; listed as Homo sapiens) [compound 436] |  |  | 1 (1 indicates <1 copy/cell) | 0 | 0 | 0 | 0 | 0 | 0 | 0 | 0 | 
440 (KLIDRTESL; SITE (1)..(9): One or more of the listed amino acids can be phosphorylated as set forth in the Tables; listed as Homo sapiens) [compound 440] |  |  | 2 (2 indicates 1-5 copies/cell) | 1 (1 indicates <1 copy/cell) | 1 (1 indicates <1 copy/cell) | 2 (2 indicates 1-5 copies/cell) | 0 | 2 (2 indicates 1-5 copies/cell) | 0 | 0 | 0 | 
444 (KMDSFLDMQL; SITE (1)..(10): One or more of the listed amino acids can be phosphorylated as set forth in the Tables; listed as Homo sapiens) [compound 444] |  |  | 0 | 0 | 1 (1 indicates <1 copy/cell) | 2 (2 indicates 1-5 copies/cell) | 0 | 0 | 0 | 0 | 0 | 
451 (RQASIELPSM; SITE (1)..(10): One or more of the listed amino acids can be phosphorylated as set forth in the Tables; listed as Homo sapiens) [compound 451] |  |  | 2 (2 indicates 1-5 copies/cell) | 1 (1 indicates <1 copy/cell) | 1 (1 indicates <1 copy/cell) | 4 (4 indicates >25 copies per cell) | 1 (1 indicates <1 copy/cell) | 2 (2 indicates 1-5 copies/cell) | 2 (2 indicates 1-5 copies/cell) | 2 (2 indicates 1-5 copies/cell) | 1 (1 indicates <1 copy/cell) | 
456 (RQLSSGVSEI; SITE (1)..(10): One or more of the listed amino acids can be phosphorylated as set forth in the Tables; listed as Homo sapiens) [compound 456] |  |  | 0 | 1 (1 indicates <1 copy/cell) | 0 | 0 | 0 | 0 | 0 | 0 | 0 | 
457 (RTFSPTYGL; SITE (1)..(9): One or more of the listed amino acids can be phosphorylated as set forth in the Tables; listed as Homo sapiens) [compound 457] |  |  | 0 | 1 (1 indicates <1 copy/cell) | 0 | 0 | 0 | 0 | 0 | 0 | 0 | 
